# Test results taken from patent US20160136299A1 (published 2016).
# Like-named read-outs stand apart in the source and are kept apart here.
# Tests used:
# [1] = biological target: CD-52 peptide 741; test: SPR
# [2] = biological target: CD-52 peptide 741; test: SPR; remark: listed apart in the source
# [3] = biological target: SAM conjugate (~8 gp) (S5); test: SPR; trivalent galactose glycopeptide conjugate
# [4] = biological target: SAM conjugate (~1.6 GalNAc) (S10); test: SPR; ~1.6 GalNAc
# [5] = biological target: Control enzyme (S4); test: SPR
# [6] = biological target: SAM conjugate (~0.8 GalNAc) (S9); test: SPR; ~0.8 GalNAc
Kd [2],Binder,other results
–,"A114N (antibody, additional N-linked glycan at N114 (Kabat)) heavy: not shown light: DIVMTQTPLSLSVTPGQPASISCKSSQSLLYSNGKTYLNWLLQKPGQSPQRLIYLVSKLDSGVPDRFSGSGSGTDFTLKISRVEAEDVGVYYCVQGTHLHTFGQGTRLEIKRTVAAPSVFIFPPSDEQLKSGTASVVCLLNNFYPREAKVQWKVDNALQSGNSQESVTEQDSKDSTYSLSSTLTLSKADYEKHKVYACEVTHQGLSSPVTKSFNRGEC",Kd [1]: 2.4 nM
1.85 nM,S442N (antibody) heavy: not shown light: DIVMTQTPLSLSVTPGQPASISCKSSQSLLYSNGKTYLNWLLQKPGQSPQRLIYLVSKLDSGVPDRFSGSGSGTDFTLKISRVEAEDVGVYYCVQGTHLHTFGQGTRLEIKRTVAAPSVFIFPPSDEQLKSGTASVVCLLNNFYPREAKVQWKVDNALQSGNSQESVTEQDSKDSTYSLSSTLTLSKADYEKHKVYACEVTHQGLSSPVTKSFNRGEC,–
1.8 nM,S298N/Y300S (antibody) heavy: not shown light: DIVMTQTPLSLSVTPGQPASISCKSSQSLLYSNGKTYLNWLLQKPGQSPQRLIYLVSKLDSGVPDRFSGSGSGTDFTLKISRVEAEDVGVYYCVQGTHLHTFGQGTRLEIKRTVAAPSVFIFPPSDEQLKSGTASVVCLLNNFYPREAKVQWKVDNALQSGNSQESVTEQDSKDSTYSLSSTLTLSKADYEKHKVYACEVTHQGLSSPVTKSFNRGEC,–
1.73 nM,Y436S (antibody) heavy: not shown light: DIVMTQTPLSLSVTPGQPASISCKSSQSLLYSNGKTYLNWLLQKPGQSPQRLIYLVSKLDSGVPDRFSGSGSGTDFTLKISRVEAEDVGVYYCVQGTHLHTFGQGTRLEIKRTVAAPSVFIFPPSDEQLKSGTASVVCLLNNFYPREAKVQWKVDNALQSGNSQESVTEQDSKDSTYSLSSTLTLSKADYEKHKVYACEVTHQGLSSPVTKSFNRGEC,–
1.35 nM,NGT (antibody) heavy: not shown light: DIVMTQTPLSLSVTPGQPASISCKSSQSLLYSNGKTYLNWLLQKPGQSPQRLIYLVSKLDSGVPDRFSGSGSGTDFTLKISRVEAEDVGVYYCVQGTHLHTFGQGTRLEIKRTVAAPSVFIFPPSDEQLKSGTASVVCLLNNFYPREAKVQWKVDNALQSGNSQESVTEQDSKDSTYSLSSTLTLSKADYEKHKVYACEVTHQGLSSPVTKSFNRGEC,–
1.95 nM,Y436T (antibody) heavy: not shown light: DIVMTQTPLSLSVTPGQPASISCKSSQSLLYSNGKTYLNWLLQKPGQSPQRLIYLVSKLDSGVPDRFSGSGSGTDFTLKISRVEAEDVGVYYCVQGTHLHTFGQGTRLEIKRTVAAPSVFIFPPSDEQLKSGTASVVCLLNNFYPREAKVQWKVDNALQSGNSQESVTEQDSKDSTYSLSSTLTLSKADYEKHKVYACEVTHQGLSSPVTKSFNRGEC,–
1.75 nM,WT 2C3 (antibody) heavy: not shown light: DIVMTQTPLSLSVTPGQPASISCKSSQSLLYSNGKTYLNWLLQKPGQSPQRLIYLVSKLDSGVPDRFSGSGSGTDFTLKISRVEAEDVGVYYCVQGTHLHTFGQGTRLEIKRTVAAPSVFIFPPSDEQLKSGTASVVCLLNNFYPREAKVQWKVDNALQSGNSQESVTEQDSKDSTYSLSSTLTLSKADYEKHKVYACEVTHQGLSSPVTKSFNRGEC,Kd [1]: 2.1 nM
1.84 nM,S440N (antibody) heavy: not shown light: DIVMTQTPLSLSVTPGQPASISCKSSQSLLYSNGKTYLNWLLQKPGQSPQRLIYLVSKLDSGVPDRFSGSGSGTDFTLKISRVEAEDVGVYYCVQGTHLHTFGQGTRLEIKRTVAAPSVFIFPPSDEQLKSGTASVVCLLNNFYPREAKVQWKVDNALQSGNSQESVTEQDSKDSTYSLSSTLTLSKADYEKHKVYACEVTHQGLSSPVTKSFNRGEC,–
–,ASGPR receptor subunit H1 (receptor) QNSQLQEELRGLRETFSNFTASTEAQVKGLSTQGGNVGRKMKSLESQLEKQQKDLSEDHSSLLLHVKQFVSDLRSLSCQMAALQGNGSERTCCPVNWVEHERSCYWFSRSGKAWADADNYCRLEDAHLVVVTSWEEQKFVQHHIGPVNTWMGLHDQNGPWKWVDGTDYETGFKNWRPEQPDDWYGHGLGGGEDCAHFTDDGRWNDDVCQRPYRWVCETELDKASQEPPLL,koff [3]: 0.0387 s⁻¹; koff [4]: 0.000296 s⁻¹; koff [5]: 0.0515 s⁻¹; koff [6]: 0.00107 s⁻¹
